Source: IntAct's records for PubMed 23435383

B1: DNA mismatch repair protein MLH1 (Saccharomyces cerevisiae), P38920 (parent)
chain: MSLRIKALDASVVNKIAAGEIIISPVNALKEMMENSIDANATMIDILVKEGGIKVLQITDNGSGINKADLPILCERFTTSKLQKFEDLSQIQTYGFRGEALASISHVARVTVTTKVKEDRCAWRVSYAEGKMLESPKPVAGKDGTTILVEDLFFNIPSRLRALRSHNDEYSKILDVVGRYAIHSKDIGFSCKKFGDSNYSLSVKPSYTVQDRIRTVFNKSVASNLITFHISKVEDLNLESVDGKVCNLNFISKKSISPIFFINNRLVTCDLLRRALNSVYSNYLPKGNRPFIYLGIVIDPAAVDVNVHPTKREVRFLSQDEIIEKIANQLHAELSAIDTSRTFKASSISTNKPESLIPFNDTIESDRNRKSLRQAQVVENSYTTANSQLRKAKRQENKLVRIDASQAKITSFLSSSQQFNFEGSSTKRQLSEPKVTNVSHSQEAEKLTLNESEQPRDANTINDNDLKDQPKKKQKLGDYKVPSIADDEKNALPISKDGYIRVPKERVNVNLTSIKKLREKVDDSIHRELTDIFANLNYVGVVDEERRLAAIQHDLKLFLIDYGSVCYELFYQIGLTDFANFGKINLQSTNVSDDIVLYNLLSEFDELNDDASKEKIISKIWDMSSMLNEYYSIELVNDGLDNDLKSVKLKSLPLLLKGYIPSLVKLPFFIYRLGKEVDWEDEQECLDGILREIALLYIPDMVPKVDTSDASLSEDEKAQFINRKEHISSLLEHVLFPCIKRRFLAPRHILKDVVEIANLPDLYKVFERC
partner: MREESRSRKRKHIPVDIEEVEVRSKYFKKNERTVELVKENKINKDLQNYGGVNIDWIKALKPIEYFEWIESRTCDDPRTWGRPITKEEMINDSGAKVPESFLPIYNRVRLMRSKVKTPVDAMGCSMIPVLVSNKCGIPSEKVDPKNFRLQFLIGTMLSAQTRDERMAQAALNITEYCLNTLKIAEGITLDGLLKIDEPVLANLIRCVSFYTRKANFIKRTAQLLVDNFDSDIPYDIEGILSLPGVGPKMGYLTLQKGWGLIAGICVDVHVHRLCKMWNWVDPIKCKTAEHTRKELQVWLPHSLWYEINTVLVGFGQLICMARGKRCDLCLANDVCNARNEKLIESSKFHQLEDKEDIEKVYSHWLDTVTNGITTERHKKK
B2: DNA mismatch repair protein MLH1 (Saccharomyces cerevisiae), P38920 (parent)
chain: B1 chain
partner: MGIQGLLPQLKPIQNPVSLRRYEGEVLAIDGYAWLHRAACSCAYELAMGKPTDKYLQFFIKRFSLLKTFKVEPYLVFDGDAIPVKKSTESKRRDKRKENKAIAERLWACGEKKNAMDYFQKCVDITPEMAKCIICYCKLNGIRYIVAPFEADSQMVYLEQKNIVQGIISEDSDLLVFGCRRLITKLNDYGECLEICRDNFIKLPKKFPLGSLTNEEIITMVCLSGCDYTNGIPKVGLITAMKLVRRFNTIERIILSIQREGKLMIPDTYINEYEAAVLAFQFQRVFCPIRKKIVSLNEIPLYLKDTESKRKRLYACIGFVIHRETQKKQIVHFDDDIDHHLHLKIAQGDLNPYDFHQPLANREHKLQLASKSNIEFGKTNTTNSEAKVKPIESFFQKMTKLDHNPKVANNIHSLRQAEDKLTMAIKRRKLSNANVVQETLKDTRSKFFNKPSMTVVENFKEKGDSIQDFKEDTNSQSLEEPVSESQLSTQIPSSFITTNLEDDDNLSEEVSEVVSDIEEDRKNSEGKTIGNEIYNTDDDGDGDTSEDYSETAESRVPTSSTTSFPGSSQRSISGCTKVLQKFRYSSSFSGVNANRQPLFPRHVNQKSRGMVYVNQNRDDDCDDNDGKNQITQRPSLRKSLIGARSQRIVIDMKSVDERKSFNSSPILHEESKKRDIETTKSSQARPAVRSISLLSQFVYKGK
B3: Endonuclease III homolog 2 (Saccharomyces cerevisiae), Q08214 (parent)
chain: B1 partner
partner: B1 chain

Variants of: B1
Settings: with nth2_yeast NTG2, Q08214

Row | effect of a mutation on the interaction | Variant
1 | disrupting interaction strength | L511A

Variants of: B2
Settings: with exo1_yeast EXO1, P39875

Row | effect of a mutation on the interaction | Variant
2 | disrupting interaction strength | L511A

Variants of: B3
Settings: with mlh1_yeast MLH1, P38920

Row | effect of a mutation on the interaction | Variant
3 | decreasing interaction strength | MREESRSRKRKHIPVDIEEVEVRSKFFKKNERTVELVKENKINKDLQNYGGVNIDWIKALKPIEYFEWIESRTCDDPRTWGRPITKEEMINDSGAKVPESFLPIYNRVRLMRSKVKTPVDAMGCSMIPVLVSNKCGIPSEKVDPKNFRLQFLIGTMLSAQTRDERMAQAALNITEYCLNTLKIAEGITLDGLLKIDEPVLANLIRCVSFYTRKANFIKRTAQLLVDNFDSDIPYDIEGILSLPGVGPKMGYLTLQKGWGLIAGICVDVHVHRLCKMWNWVDPIKCKTAEHTRKELQVWLPHSLWYEINTVLVGFGQLICMARGKRCDLCLANDVCNARNEKLIESSKFHQLEDKEDIEKVYSHWLDTVTNGITTERHKKK [Y26F]
4 | disrupting interaction strength | MREESRSRKRKHIPVDIEEVEVRSKYAKKNERTVELVKENKINKDLQNYGGVNIDWIKALKPIEYFEWIESRTCDDPRTWGRPITKEEMINDSGAKVPESFLPIYNRVRLMRSKVKTPVDAMGCSMIPVLVSNKCGIPSEKVDPKNFRLQFLIGTMLSAQTRDERMAQAALNITEYCLNTLKIAEGITLDGLLKIDEPVLANLIRCVSFYTRKANFIKRTAQLLVDNFDSDIPYDIEGILSLPGVGPKMGYLTLQKGWGLIAGICVDVHVHRLCKMWNWVDPIKCKTAEHTRKELQVWLPHSLWYEINTVLVGFGQLICMARGKRCDLCLANDVCNARNEKLIESSKFHQLEDKEDIEKVYSHWLDTVTNGITTERHKKK [F27A]
5 | disrupting interaction strength | MREESRSRKRKHIPVDIEEVEVRSKYYKKNERTVELVKENKINKDLQNYGGVNIDWIKALKPIEYFEWIESRTCDDPRTWGRPITKEEMINDSGAKVPESFLPIYNRVRLMRSKVKTPVDAMGCSMIPVLVSNKCGIPSEKVDPKNFRLQFLIGTMLSAQTRDERMAQAALNITEYCLNTLKIAEGITLDGLLKIDEPVLANLIRCVSFYTRKANFIKRTAQLLVDNFDSDIPYDIEGILSLPGVGPKMGYLTLQKGWGLIAGICVDVHVHRLCKMWNWVDPIKCKTAEHTRKELQVWLPHSLWYEINTVLVGFGQLICMARGKRCDLCLANDVCNARNEKLIESSKFHQLEDKEDIEKVYSHWLDTVTNGITTERHKKK [F27Y]
